From publication PMC6219519

Columns and labels:
[1] = biological target: hexasome: (H3-H4)2 tetramer with one H2A-H2B dimer on 170 bp Widom 601 DNA (Xenopus laevis) (UniProt P84233); assay: FRET or BRET; single-molecule FRET with multi-parameter fluorescence detection, dynPDA and trace analysis, global four-state kinetic model; IβIα-wt nucleosomes on 170 bp Widom 601 DNA (dyes on the DNA), 20 pM labelled, total concentration varied with unlabelled nucleosomes; 150 mM NaCl, TE buffer pH 7.5, 1 mM ascorbic acid, 0.01% Nonidet P40; hexasome and tetramer stand on the DNA
[2] = biological target: (H3-H4)2 tetramer (wild type Xenopus laevis recombinant histones) (Xenopus laevis) (UniProt P84233); assay: as above

H2A-H2B dimer (wild type Xenopus laevis recombinant histones) (from UniProt P06897 2-120; P02281 2-126) (complex)
Kd [1]: 0.039 nM | relaxation time tR of octasome/hexasome exchange (estimated for [H2A-H2B] ≈10 pM) [1]: < 300 s | Kd [2]: > 0.002 nM | relaxation time tR of hexasome/tetrasome exchange (estimated for [H2A-H2B] ≈10 pM) [2]: > 10000 s
